B5: anti-BCMA CAR 1 (chimeric antigen receptor with the scFv of anti-BCMA Target Antibody 1) (receptor)
chain: SYELTQPPSASGTPGQRVTMSCSGTSSNIGSHSVNWYQQLPGTAPKLLIYTNNQRPSGVPDRFSGSKSGTSASLAISGLQSEDEADYYCAAWDGSLNGLVFGGGTKLTVLGSRGGGGSGGGGSGGGGSLEMAEVQLVQSGAEVKKPGESLKISCKGSGYSFTSYWIGWVRQMPGKGLEWMGIIYPGDSDTRYSPSFQGHVTISADKSISTAYLQWSSLKASDTAMYYCARYSGSFDNWGQGTLVTVSS
notes: Whole receptor expressed on Jurkat T cells; not shown: human IgG-derived spacer, human CD28-derived transmembrane domain, human 4-1BB-derived intracellular signaling domain an
B6: soluble monomeric scFv-Fc fusion protein (scFv from anti-BCMA CAR 2) (Fc fusion)
chain: QSALTQPASVSASPGQSIAISCTGTSSDVGWYQQHPGKAPKLMIYEDSKRPSGVSNRFSGSKSGNTASLTISGLQAEDEADYYCSSNTRSSTLVFGGGTKLTVLGSRGGGGSGGGGSGGGGSLEMAEVQLVQSGAEMKKPGASLKLSCKASGYTFIDYYVYWMRQAPGQGLESMGWINPNSGGTNYAQKFQGRVTMTRDTSISTAYMELSRLRSDDTAMYYCARSQRDGYMDYWGQGTLVTVSS
notes: not shown: Fc
B7: soluble dimeric scFv-Fc fusion protein (scFv from anti-BCMA CAR 2) (Fc fusion)
chain: QSALTQPASVSASPGQSIAISCTGTSSDVGWYQQHPGKAPKLMIYEDSKRPSGVSNRFSGSKSGNTASLTISGLQAEDEADYYCSSNTRSSTLVFGGGTKLTVLGSRGGGGSGGGGSGGGGSLEMAEVQLVQSGAEMKKPGASLKLSCKASGYTFIDYYVYWMRQAPGQGLESMGWINPNSGGTNYAQKFQGRVTMTRDTSISTAYMELSRLRSDDTAMYYCARSQRDGYMDYWGQGTLVTVSS
notes: not shown: Fc

Columns and labels:
[1] = target: B7; experiment: SPR, BIAcore T200, against dimeric scFv-Fc
Description: (§1) Off rates and equilibrium dissociation constants were determined against a soluble monomeric scFv-Fc fusion protein as well as against a soluble dimeric scFv-Fc fusion protein. For comparison, the kinetics and affinity of soluble monomeric and dimeric BCMA-human Fc fusion proteins were also assessed against the monomeric and dimeric scFv-Fc fusion proteins, respectively. Off rates and equilibrium dissociation constants were determined using a BIAcore T200 instrument.

[2] = target: B5; experiment: flow cytometry; Jurkat T cells expressing anti-BCMA CAR 1, 2.5 µg/mL anti-ID conjugated to Alexa Fluor 647, 20 min at 4 °C
[3] = target: B6; experiment: SPR, BIAcore T200, against monomeric scFv-Fc
Description: as §1

[4] = target: T1, anti-BCMA CAR 2 (chimeric antigen receptor with the scFv of anti-BCMA Target Antibody 2); experiment: flow cytometry; Jurkat T cells expressing anti-BCMA CAR 2, 5 µg/mL purified anti-ID, goat anti-mouse IgG secondary antibody; parental Jurkat cells as negative
T1 construct: Whole receptor expressed on Jurkat T cells, Nur77-tdTomato reporter cells or primary human T cells; not shown: human IgG2 and IgG4-derived spacer, human CD28-derived transmembrane domain, human 4-1BB-derived intracellular signaling

[5] = target: B5; experiment: flow cytometry; Jurkat T cells expressing anti-BCMA CAR 1, anti-ID conjugated to Alexa Fluor 647
[6] = target: T2, recombinant BCMA-Fc (soluble human BCMA fused at its C-terminus to an Fc region of IgG) fusion polypeptide (human, UniProt Q02223 1-54); experiment: flow cytometry; Jurkat T cells expressing anti-BCMA CAR 1, staining with recombinant BCMA-Fc as control
T2 construct: Used as a staining control; also called recombinant BCMA-Fc fusion polypeptide; not shown: Fc region of IgG
T2 sequence (looked up): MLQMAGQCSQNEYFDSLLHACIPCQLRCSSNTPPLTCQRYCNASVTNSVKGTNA

[7] = target: T3, soluble monomeric BCMA-human Fc fusion protein (UniProt Q02223 1-54, limits assumed); experiment: SPR, BIAcore T200, against monomeric scFv-Fc
T3 construct: also called Monomeric BCMA-Fc; not shown: human Fc
T3 sequence (looked up): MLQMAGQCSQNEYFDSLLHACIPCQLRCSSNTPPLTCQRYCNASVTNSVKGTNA
Description: as §1

[8] = target: T4, soluble dimeric BCMA-human Fc fusion protein (UniProt Q02223 1-54, limits assumed); experiment: SPR, BIAcore T200, against dimeric scFv-Fc
T4 construct: also called Dimeric BCMA-Fc; not shown: human Fc
T4 sequence (looked up): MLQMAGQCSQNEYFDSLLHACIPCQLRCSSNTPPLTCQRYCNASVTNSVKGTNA
Description: as §1

B1: anti-idiotype antibody clone 15 (antibody, mouse IgG1, kappa, V domains shown)
VH: QVQLQQSGAELVKPGASVKISCKASGYAFSSYWMNWVKQRPGKGLEWIGQIYPGNGETNNNGKFKGKATLTADISSSTAYMQLSSLTSEDSAVYFCARGGWYFDVWGTGTTVTVSS
VL: DIQMTQSPASLSASVGETVTITCRASENIYSYLAWYQQKQGKSPHLLVYNAYTLAEGVPSRFSGSGSDTQFSLKINSLQPEDFGNYYCQHHYGTPWTFGGGTKVEIKR
notes: Mouse hybridoma antibody, purified; also called anti-ID clone 15
Kd [1]: 2.2 nM
koff [1]: 4.4e-05 s⁻¹
binding result [2]: binds
Kd [3]: 18 nM
koff [3]: 0.0036 s⁻¹

B2: anti-idiotype antibody clone 10 (antibody, mouse IgG1, kappa, V domains shown)
VH: EVKLLESGGGLVQPGGSLKLSCAASGFDFSRYWMSWVRQAPGKGLEWIGEINPDSSTINYTPSLKDKFIISRDNAKNTLYLQMSKVRSEDTALYYCARHGYYWYFDVWGAGTTVTVSS
VL: DIQMTQTTSSLSASLGDRVTISCRASQDISNYLNWYQQKPDGTVKLLIYYTSRLHSGVPSRFSGSGSGTDYSLTISNLEQEDIATYFCQQGNTLPYTFGGGTKLEIKR
notes: Mouse hybridoma antibody raised against the anti-BCMA CAR 1 scFv fused to mouse Fc and purified; Detected with a goat anti-mouse IgG secondary antibody; also called anti-ID clone 10
binding result [4]: binds

B3: anti-idiotype antibody clone 16 (antibody, mouse IgG1, kappa, V domains shown)
VH: QVQLQQSGPELVKPGASVKISCKASGYTFTDFYINWVKQRPGQGLEWIGWIFPRSGSTYYNEKFKGKATLSVDKSSITAYMLLSSLTSEDSAVYFCARGDGYSGAMDYWGQGTSVTVSS
VL: DIQMTQTTSSLSASLGDRVTISCSASQGIRNYLNWYQQKPDGTVKLLIYYTSNLHSGVPSRFSGSGSGTDYSLTISNLEPEDIATYYCQQYNNLPRTFGGGTKLEIKR
notes: Mouse hybridoma antibody, purified; also called anti-ID clone 16
Kd [1]: 2.6 nM
koff [1]: 0.00014 s⁻¹
binding result [5]: no binding (tested: 2.5 µg/mL)
Kd [3]: 12 nM
koff [3]: 0.005 s⁻¹

B4: anti-idiotype antibody clone 19 (antibody, mouse IgG2b, kappa, V domains shown)
VH: QVQLQQSGAELMKPGASVKLSCKATGYTFTAYWIEWVKQRPGHGLEWIGEILPGSGITKYSEKFKGKATFTADTSSNTAYMQLSSLTTEDSAIYYCARDYYSDNYWGQGTSVTVSS
VL: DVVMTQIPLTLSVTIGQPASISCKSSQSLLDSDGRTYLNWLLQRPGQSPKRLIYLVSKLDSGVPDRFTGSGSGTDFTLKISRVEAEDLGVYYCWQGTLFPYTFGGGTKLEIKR
notes: Mouse hybridoma antibody, purified; also called anti-ID clone 19
Kd [1]: 3.6 nM
koff [1]: 6.2e-05 s⁻¹
Kd [3]: 55 nM
koff [3]: 0.0081 s⁻¹

B5
binding result [6]: binds

B6
Kd [7]: 290 nM
koff [7]: 0.024 s⁻¹

B7
Kd [8]: 7 nM
koff [8]: 0.00014 s⁻¹
